Laboratory results reported in a protein production outcome set (Wang et al. 2014).

assay: label from the status in PepcDB records

| Sequence | protein production |
| --- | --- |
| PWQHFIIGSLFGWVHKETKLRRFKEALIFMGRKNGKTTTISGVANYAVSQDGENGAEIHLLANVMKQARILFDESKAMIKASPKLDKNFRTLRDEIHYDATISKIMPQASDSDKLDGLNTHMGIFDEIHEFKDYKLISVIKNSRAARLQPLLIYITTAGYQLDGPLVDMVEAGRDTLDQIIEDERTFYYLASLDDDDDINDSSNWIKANPNLGVSINLDEMKEEWEKAKRTPAERGDFITKRFNIFANNDEMSFIDYPTLQKNNEIVSLEELEGRPCTIGYDLSETEDFTAACATFALDNGKVAVLSHSWIPKHKVEYSNEKIPYREWEEDGLLTVQDKPYIDYQDVLNWIIKMNEHYVVEKITYDRANAFKLNQELKNYGFETEETRQGALTLSPALKDLKEMFLDGKIIFNNNPLMKWYINNVQLKLDRNGNWLPSKQSRYRKIDGFAAFLNTYTDIMNKVVSDKGEGNIEFISIKDIMR | failed |
| PWQPPADLSGLSIEEVSKSLRFIGLSEDVISFFVTEKIDGNLLVQLTEEILSEDFKLSKLQVKKIMQFING | not failed |
| PYNKNGFKVGMKLEGVDPEHQSVYCVLTVAEVCGYRIKLHFDGYSDCYDFWVNADALDIHPVGWCEKTGHKLHPPKGYKEEEFNWQTYLKTCKAQAAPKSLFENQNITVIPSGF | not failed |
| QADAGPDKELTLPVDSTTLDGSKSSDDQKIISYLWEKTQGPDGVQLENANSSVATVTGLQVGTYVFTLTVKDERNLQSQSSVNVIVKEE | not failed |
| QALDVLDDAGRKVLFTEARTANTFAEVAVADDELAMIWELARWSPSAANGQPLRVLFVRTPEGKERLGRHLDEGNRAKTLSAPAVAILAYDVDFHEQMPTVFPARGEMLRAAFADQTEKRESLAAYNSALQTGVFLLAVRAAGLAAGPMAGFDRAGVDEEFFAGTSWRSHLVVNIGHPGADPWFPRLPRVPVEDAVAYA | failed |
| QALPEKALDSFIVTGLSKRGWTTWLTAIVDSRVVAIAPFVIDLLDTRAALEHMYQSYGGNWPIAFTPYYLDEVDKKLDTASFAKLMQIIDPLQYMGTEYQSRLSIPKYIINASGDDFYVPDNTDFYYDKLPGEKALRVAPNASHSGIKAFSEQSLISFVNR | failed |
| QCPASVEKAIISSFSPVLNEPMLDYIDKAQVYLAAREKRKIGSLLNDTVGKHLPRLFKLYNYKHLIGLAEHEYGQIDFHISQIRTLSASNYVERFSSIKIPVLFINGEKDEYTTVEDARMFSNYIAKSSFNVVPDTGHFLDLESKAAWHHSQKTALSFLGT | not failed |
| QEIASRLPYFCSGCPHNSSTKVPDGSRAYAGIGCHYMVQWMDRNTQGFTHMGGEGANWIGEAPFSKTKHVFQNLGDGTYNHSGVQAIRAALAAGTNITYKILFNDAVAMTGGQENEGDLSAPRIVAELKAMGVKELAVVYDDKEDVDRSQFPSGIPFHERAELMQVQKRFREIAGVSAIVYIQTCAAEKRRRRKRGTFPDPDKRAFINTDICEGCGDCGVQSNCVSIVPKETELGRKRAIDQSSCNKDFSCVKGFCPSFVTVQGAKIRKEATAEIDL | failed |
| QEIKRYADEHEERYGRFPKTLIFAVQDLANSSSHADQIVDQARDIFGRGDSFVQKITGKVDRPLQRIREFRNRKEPGIAVTVDLLSTGVDVPDIEYIVFLRSMKSRILFEQMIGRGTRKGEH | failed |
| QKRLRRKLHEYQKNIPPQVRAARLADDINAKLGRPLQYQNRGRIEYLITLNGPEPHEYRNSPIDYQHYIDKQLKPVADAILPFIGTDFETLSAPQMGLF | failed |
| QMNTVFIKNEGVTEGEIATIGEHTAEISGVSTGTDWTRDYSQSGALRSLLGTVSTEKQGLPAEEVDEYLKKGYARNDRVGTSYLEKQYEDVLQGKKAKSEVVLDNNGKIVSQTPISKGEKGSNLKLTID | failed |
| QQKNMENKTLNENIPEMIISLEKEALASTDPMAFVELSDTDVIYFDPSLETKIEGLEQLRTYYKGMQLPPADHFDMIRPVVQVAQNIAVLTFNLDSYLSDKVIKWNCTEVYRRNPDNQWKIIQTHWSYVKPLD | not failed |
| QSGMKAELLDHGTAPVPSELAEYFPQVPEVALYHRLRCDEKTGEPTNHARNYVRPELAGRIDLDDLARWPMTKVLRDVVGMDISRITDTVEARLADPETARLLEVPLLSPILHYTGITYDLEGRVLDVAVIHYRGDRFSFTVTLDAT | failed |
| QSKTATVFLHGYNGGAYSTNYLIRKAEKAGAAQKALVVHVYKNGVMAFKGYWQKSIKNPMVQVVFQDNHASQKAQIYWLHQVLVQLKAKYGVKAYNAVGHSLGANDIVNQALKYGHDKRLPTLNKIVTIGGPFDGLTGFLSTQTEATVRRLDVKPSRFTKHFSEMLKYRHNFPDNVKLLNVYGDTNTGYNNDGFVGVASARSIRYLLRGKLTQYQEAFYSGEQAAHCALNQNPSVAHKMIAFLW | failed |
| QSLRSFQKQNEDNDKRQQILRSINVNVSSSEAETKYNELIKEAFLVNENGEKVEGDAFATDVVKAATEHQYPVFVANVDGQPKYIMALHGAGLWGPLWGYISVDSDKNTIYGADFSHQGETPGLGAEISKPVFSNEFKGKKIFMSGEFKSVAVVKPGKSVAGQDYVDGISGGTITSKGVDEMLFNSLSGYVKFLTSQN | not failed |
| QTVAQGKLTLSVPKAVGRFVIHPLMMAFFHRYPQVDVCLRLEDRPLDFIDDGIDLALRITDTPSPGLHGKPLMPIRHVICATEAYLQQHGTPYTPQDLRSHSCISLGETPADARWKFRREGKTETVQTYGRYAANHTAVR | failed |

| Sequence | protein production |
| --- | --- |
| QVPILHRDADFLLRALQPDDFVRTSRYENANREHLAPWEPLRDPGYFSVDNARARTLLQVASMDEGEALLLLLLDPDDGEVLGRCSYTNIVRGVFQACHLGFSLAAAAQGRGLMARALRVANRYCFEQLGLHRIMASHLPRNARSERLLESLGFEKEGYARAYLKIAGVWEDHVLRALVDAPR | not failed |
| RAAASPITITVGDRALELSVLRPAAPKGVVVFSHGAGGTAEAYATLLEGWRQAGFLVVAPLHVDSQKHPRKTAYNLRSSFPLRIADVGAAAGWAAAAAPGLPLAYAGHSYGSLMSLMRGGALEGMIPARDPNAKAVLCFSSPGTIQGLMGPATFQTLTTPTMVLTGELDLVPGMVADWRDHLRAVEESPAGEKYAWIGKSVDHGLAHHPDNPAFAEASALSVTFLKAQLLGD | failed |
| RAQTFEAVTPEYSRYAGQAFGSFQAMLSDLPDELGETIPNFHNMEFRLGQLHDALKTDPVGRAEEVRYYIDEIEKRAEEMCKAERLHREGKLPKRVCHCDTKVNNMLFDEDGHVLCVIDLDTVMPNFIFSDYGDFLRTGANTGEEDDKDLDHVNFDMEIFKAFTEGYLKGASSFLTDVEIENLPYAAALFPYMQCVRFLTDYINGDTYYKIKYPEHNLVRTRAQFRLLQSVEDCMPQMQAFIDQCLRY | not failed |
| RDRPAGLLRINATLGFGRTHLAPAIARFRRIHPAVEVQLLLTDAPLNLVEEGIDLGIRFGAPPFGRMVMRLLQRNRRFLCAAPSYLEARGVPQSLTDLQQHSCIVLRQDHDAYDVW | failed |
| RDSLFICAVATTETSRIPGITGAGASPELTEYTPAADVELIVHDAPRCLPEIPQTIVEGEAAPTPAVITKAALELAEVPFMVADAGASVKPDVPYININSEPGGDIRTGRAVTEPQRIYERGLMVGRTLSSLTEHLVVGESTPAGTTTALGVLTALGYDADFRVSASMPHNPHDLKREVVMAGLSNAGIEKGDCSREPFRAVEAVGDPMIPAVAGICMGSTVPVTLAGGTQMTAVCALMRAIDPDFDFSDTAIATTIFVAEDSTSDINRIAEQIGDIDIYVVDPDFGSASHRGLHEYLNGSVKEGVGAGGAMLLALLH | failed |
| RDTSVVVEHTSANPTGPVHVGRARNPIIGDAVARVLDYAGYDVDRHYYVNDAGRQIAVFTWAYETFDEDDLPEPERESPEYEMVRYYRKGNTILEDGDPDEVEAAEAEVQSILQGLEDGDEETYERVAEVVDTVLGGMQNTLGRLPAEFDEFVKETKFMRNGDTDDLVDRLKGLDCAVYEEDAWQLDLPDFEKNLVFLRSDGTSLYTTRDLAHHEWKFDTYDRAVTVLGEDHKLQADQLAAALELLDNDTDQLRQVFYSWVNLPEGGMSTREGTGIDLDDLLDEAIDRAREEVESRLDDRTRGDLDEDDIDRIARQVGIGAVRYDIVSKQPTKGITFEWDRALDFEAQSAPYVQYV | failed |
| REMGCAVTVADSNSAQLDKLAQQTGCQTISPADVVSDGFQDYTVVVTSPGWRPDSPLLVAAQSAGLEVIGDVELVYRLDRAEVFGPKRTWMVVTGTNGKTTTTAMLAEIMQHSGARAAAVGNIGVSVADAVRTQPRIDVLVAELSSFQL | failed |
| RESVEKQKKLEAILVSMDSGVIAVDRKHKIIMINPYAEKIFGIDKNIIGQSLMDCIRNYEFEDIFNKRAEGYAEIKTSWPKERNLRIKTADIINGYECIGTVAVVQDIT | failed |
| RFGLPVNGALDQYSARAANILAGNLDNHPLLEITALDFRMKANSDVLIAVTGAPLTLTVGGRPCSQWEPVSVRAGESVSIRGIHRGLRAYLAIHGSIEAGTLLGSAAPDTVVGFGLQLQEGTTLLSRRSVSPVRQPYFDLPLFRLGLERPSMGSDLSVDVTDGPDVAEFGESGELLFTSEYVVSGRSNHIGLRLGGELPERTSSDEVLSRGVPVGAVEVPSREELLVLHRGRGVTAGYPVLAVVTSTGLDVLAQARPGDKVRFRKTTVAEATAAHRRSRAQ | failed |
| RFKQNADHIVLTHVFNGGSAESAALCPQDKIIALDGYACTDFAAQWARYHVRAKINIHFFRAGILRQTVLTVQATAADTAI | failed |
| RGRGGTGGARRLSCGARRRAARGTSPGRRLSTAWSQPQPPPEEYAGADDVSQSPVAEEPSWVPSPRPPVPHESPEPPSGRSLVQRDIQAFLNQCGASPGEARHWLTQFQTCHHSADKPFAVIEVDEEVLKCQQGVSSLAFALAFLQRMDMKPLVVLGLPAPTAPSGCLSFWEAKAQLAKSCKVLVDALRHNAAAAVPFFGGGSVLRAAEPAPHASYGGIVSVETDLLQWCLESGSIPILCPIGETAARRSVLLDSLEVTASLAKALRPTKIIFLNNTGGLRDSSHKVLSNVNLPADLDLVCNAEWVSTKERQQMRLIVDVLSRLPHHSSAVITAASTLLTELFSNKGSGTLFKNAERMLRVRSLDKLDQGRLVDLVNASFGKKLRDDYLASLRPRLHSIYVSEGYNAAAILTMEPVLGGTPYLDKFVVSSSRQGQGSGQMLWECLRRDLQTLFWRSRVTNPINPWYFKHSDGSFSNKQWIFFWFGLADIRDSYELVNHAKGLPDSFHKPASDPGS | failed |
| RGSRFTWRKECLAVMESYFNENQYPDEAKREEIANACNAVIQKPGKKLSDLERVTSLKVYNWFANRRKEIKRRANIAAILES | not failed |
| RKEMTAACTPRRRIINLTSVLSLQEEINEQGHEVLREMLHNHSFVGCVNPQWALAQHQTKLYLLNTTKLSEELFYQILIYDFANFGVLRLSEPAPLFDLAMLALDSPESGWTEEDGPKEGLAEYIVEFLKKKAEMLADYFSLEIDEEGNLIGLPLLIDNYVPPLEGLPIFILRLATEVNWDEEKECFESLSKECAMFYSIRKQYISEESTLSGQQSEVPGSIPNSWKWTVEHIVYKALRSHILPPKHFTEDGNILQLANLPDLYKVFERC | failed |
| RKKPVSQSLEFPTRYSPYRPYRCVHQGCFAAFTIQQNLILHYQAVHKSDLPAFSAEVEEE | not failed |
| RNPLFTCVISSIETTLSIPISGVHRDVIKYTPSADVELVFYGKSLTLKTPPIDATGSPTPATITRACVELKNIKNLHIDAGAFVKPKIPFIEIDEKPTGRIEEGKAMNNSKELYMKGYLLGKNLDAELLIVGESVPGGTTTALGVLLGLGYDAEGKVSSGSINNPHELKIKVVREGLKKAGINEKSSVFDVLNAVGDKMMPVVAGLAISFAERNKPVILAGGTQMSAVLAVIKEINKKVLDKNLIAIGTTEFVLNDKKGDLKGIVEQIGNVPVLASKFYFEKAKIEGLKNYCKGSVKEGVGAGGIAVYSIVNDL | failed |
